Experimental data taken from article PMC4832192, “Structural basis of DNA sequence recognition by the response regulator PhoP in Mycobacterium tuberculosis”.

What was measured:
PhoP L113D = PhoP L113D (Mycobacterium tuberculosis, UniProt P71814 1-247, L113D); experiment: ITC; 5 mM MgCl2; ITC: 20 mM HEPES pH 7.5, 100 mM NaCl, 5 mM MgCl2, 25 C, […]; conditions: protein: recombinant; tags: N-terminal His-tag removed with TEV; chain copies: 2
PhoP Y205A = PhoP Y205A (Mycobacterium tuberculosis, UniProt P71814 1-247, Y205A); experiment: as above; conditions: protein: recombinant; tags: N-terminal His-tag removed with TEV; chain copies: 2

| Binder | Kd (PhoP L113D) | Kd (PhoP Y205A) |
| --- | --- | --- |
| ahpC (dsDNA) DNA 1: TTTGCCTGACAGCGACTTCACGGCACGATG DNA 2: CATCGTGCCGTGAAGTCGCTGTCAGGCAAA | 595 ± 51.4 nM | 654 ± 57.2 nM |
| lpqA (dsDNA) DNA 1: GCACCTTCACCGCCCGCCCACAGCCACGCA DNA 2: TGCGTGGCTGTGGGCGGGCGGTGAAGGTGC | 2870 ± 541 nM | 3080 ± 371 nM |
| hisG (dsDNA) DNA 1: CGCGACCCGCAGCATGCTCACAGCTTTCGA DNA 2: TCGAAAGCTGTGAGCATGCTGCGGGTCGCG | 117 ± 11.7 nM | 114 ± 11.2 nM |
| DRs3 (3-bp spacer) (dsDNA) DNA 1: AAGTACCTCACAGCACTTCACAGCTTTCAT DNA 2: ATGAAAGCTGTGAAGTGCTGTGAGGTACTT | 368 ± 52.2 nM | – |
| DR (dsDNA) DNA 1: ACGATTCACAGCTGATTCACAGCATCTACG DNA 2: CGTAGATGCTGTGAATCAGCTGTGAATCGT | 26.2 ± 6.5 nM | 21.8 ± 6.2 nM |
